According to paper PMC2132652 (The Journal of Cell Biology, 1997):

B1: furin-HA (mouse furin tagged with the HA epitope), expressed stably in RBL cells (enzyme, UniProt P23188 108-793, looked up)
chain: DVYQEPTDPKFPQQWYLSGVTQRDLNVKEAWAQGFTGHGIVVSILDDGIEKNHPDLAGNYDPGASFDVNDQDPDPQPRYTQMNDNRHGTRCAGEVAAVANNGVCGVGVAYNARIGGVRMLDGEVTDAVEARSLGLNPNHIHIYSASWGPEDDGKTVDGPARLAEEAFFRGVSQGRGGLGSIFVWASGNGGREHDSCNCDGYTNSIYTLSISSATQFGNVPWYSEACSSTLATTYSSGNQNEKQIVTTDLRQKCTESHTGTSASAPLAAGIIALTLEANKNLTWRDMQHLVVQTSKPAHLNADDWATNGVGRKVSHSYGYGLLDAGAMVALAQNWTTVAPQRKCIVEILVEPKDIGKRLEVRKAVTACLGEPNHITRLEHVQARLTLSYNRRGDLAIHLISPMGTRSTLLAARPHDYSADGFNDWAFMTTHSWDEDPAGEWVLEIENTSEANNYGTLTKFTLVLYGTAPEGLSTPPESSGCKTLTSSQACVVCEEGYSLHQKSCVQHCPPGFIPQVLDTHYSTENDVEIIRASVCTPCHASCATCQGPAPTDCLSCPSHASLDPVEQTCSRQSQSSRESRPQQQPPALRPEVEMEPRLQAGLASHLPEVLAGLSCLIIVLIFGIVFLFLHRCSGFSFRGVKVYTMDRGLISYKGLPPEAWQEECPSDSEEDEGRGERTAFIKDQSAL
B2: furin-FLAG (mouse furin tagged with the FLAG epitope), expressed stably in RBL cells (enzyme)
chain: B1 chain

Molecular target: the molecule itself
Experiment: cross-linking

Protein | stoichiometry N
B1 | 2
B2 | 2
